Measurements taken from paper PMC11832770, “NADH-bound AIF activates the mitochondrial CHCHD4/MIA40 chaperone by a substrate-mimicry mechanism” (The EMBO Journal, 2025).

B1: Atto488-CHCHD4 (natural protein, human, UniProt Q8N4Q1 1-142, looked up)
chain: MSYCRQEGKDRIIFVTKEDHETPSSAELVADDPNDPYEEHGLILPNGNINWNCPCLGGMASGPCGEQFKSAFSCFHYSTEEIKGSDCVDQFRAMQECMQKYPDLYPQEDEDEEEEREKKPAEQAEETAPIEATATKEEEGSS
modifications: ATTO 488 (NHS ester) on the N-terminus
notes: not shown: GB1-6X-His, N-terminal, cleaved
B2: AIF-ΔC-loop (domain or fragment)
chain: VGAGAYAYKTMKEDEKRYNERISGLGLTPEQKQKKAALSASEGEEVPQDKAPSHVPFLLIGGGTAAFAAARSIRARDPGARVLIVSEDPELPYMRPPLSKELWFSDDPNVTKTLRFKQWNGKERSIYFQPPSFYVSAQDLPHIENGGVAVLTGKKVVQLDVRDNMVKLNDGSQITYEKCLIATGGTPRSLSAIDRAGAEVKSRTTLFRKIGDFRSLEKISREVKSITIIGGGFLGSELACALGRKARALGTEVIQLFPEKGNMGKILPEYLSNWTMEKVRREGVKVMPNAIVQSVGVSSGKLLIKLKDGRKVETDHIVAAVGLEPNVELAKTGGLEIDSDFGGFRVNAELQARSNIWVAGDAACFYDIKLGRRRVEHHDHAVVSGRLAGENMTGAAKPYWHQSMFWSDLGPDVGYEAIGLVDSSLPTVGVFYGKGVIFYLRDKVVVGIVLWNIFNRMPIARKIIKDGEQHEDLNEVAKLFNIHED

Legend:
Details in all cases: both partners purified
AIF(78-613), wild type = biological target: T1, AIF(78-613), wild type (human, UniProt O95831 78-613); assay: MST; wild-type AIF titrated (1.8 nM–30 µM) into 100 nM Atto488-CHCHD4 with 300 µM NADH; 25 mM HEPES pH 7.5, 150 mM NaCl, 0.01% Tween-20, 5 mM TCEP; 25 °C
T1 construct: Apoptosis-inducing factor (AIF), human, residues 78-613, lacking the inner mitochondrial membrane tether; Construct from Brosey et al 2016; also called Apoptosis-inducing factor; AIF + NADH; source: E. coli Rosetta2(DE3), purified (Ni-NTA, PreScission cleavage, subtractive Ni-NTA, Superdex 200)

AIF-W196A = biological target: T2, AIF-W196A (human, UniProt O95831 78-613, W196A); assay: MST; AIF allostery mutants titrated (1.8 nM–30 µM) into 100 nM Atto488-CHCHD4 without NADH; 25 mM HEPES pH 7.5, 150 mM NaCl, 0.01% Tween-20, 5 mM TCEP; 25 °C
T2 construct: Apoptosis-inducing factor (AIF), human, allostery mutant lacking the inner mitochondrial membrane tether; limits read as those of the wild type, 78-613; source: E. coli Rosetta2(DE3), purified (Ni-NTA, PreScission cleavage, subtractive Ni-NTA, Superdex 200)

AIF-R529A = biological target: T3, AIF-R529A (human, UniProt O95831 78-613, R529A); assay: as above
T3 construct: Apoptosis-inducing factor (AIF), human, allostery mutant lacking the inner mitochondrial membrane tether; limits read as those of the wild type, 78-613; source: E. coli Rosetta2(DE3), purified (Ni-NTA, PreScission cleavage, subtractive Ni-NTA, Superdex 200)

Atto488-CHCHD4 = biological target: B1; assay: as above

Binder	Kd (AIF(78-613), wild type) [nM]	Kd (AIF-W196A) [nM]	Kd (AIF-R529A) [nM]	Kd (Atto488-CHCHD4) [nM]
B1	340	2200	2500	
B2				4000
